B1: C8orf76 (parent)
chain: KLAEAYLNLGPALSAALASSQKQH

Variants of: B1
Test: protein stability index of a GFP-peptide fusion (GPS, HEK-293T) (PSI 1-6); higher = more stable
Settings: c terminus: a fixed tail appended
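Also: lentivirally expressed fusions sorted by FACS into six bins by GFP to DsRed ratio, PSI derived from sequencing read proportions per bin multiplied by bin number.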

| Variant | protein stability index |
| --- | --- |
| KLAEAYLNLGPALFAALASSQKQH | 4.03 |
| KLAEAYLNLGPALGAALASSQKQH | 2.12 |
| KLAEAYLNLGPALHAALASSQKQH | 2.18 |
| KLAEAYLNLGPALKAALASSQKQH | 1.3 |
| KLAEAYLNLGPALMAALASSQKQH | 3.24 |
| KLAEAYLNLGPALNAALASSQKQH | 2.86 |
| KLAEAYLNLGPALPAALASSQKQH | 1.81 |
| KLAEAYLNLGPALQAALASSQKQH | 2.93 |
| KLAEAYLNLGPALRAALASSQKQH | 2.06 |
| KLAEAYLNLGPALTAALASSQKQH | 3.75 |
| KLAEAYLNLGPALVAALASSQKQH | 4.08 |
| KLAEAYLNLGPALYAALASSQKQH | 2.35 |
| KLAEAYLNLGPALSCALASSQKQH | 2.3 |
| KLAEAYLNLGPALSDALASSQKQH | 2.32 |
| KLAEAYLNLGPALSEALASSQKQH | 2.26 |
| KLAEAYLNLGPALSFALASSQKQH | 2.78 |
| KLAEAYLNLGPALSGALASSQKQH | 2.03 |
| KLAEAYLNLGPALSHALASSQKQH | 2.63 |
| KLAEAYLNLGPALSIALASSQKQH | 3.79 |
| KLAEAYLNLGPALSKALASSQKQH | 2.27 |
| KLAEAYLNLGPALSLALASSQKQH | 3.15 |
| KLAEAYLNLGPALSMALASSQKQH | 2.94 |
| KLAEAYLNLGPALSNALASSQKQH | 1.81 |
| KLAEAYLNLGPALSPALASSQKQH | 2.36 |

| Variant | protein stability index |
| --- | --- |
| KLAEAYLNLGPALSQALASSQKQH | 2.98 |
| KLAEAYLNLGPALSRALASSQKQH | 2.34 |
| KLAEAYLNLGPALSSALASSQKQH | 1.54 |
| KLAEAYLNLGPALSTALASSQKQH | 2.15 |
| KLAEAYLNLGPALSVALASSQKQH | 2.31 |
| KLAEAYLNLGPALSWALASSQKQH | 2.71 |
| KLAEAYLNLGPALSYALASSQKQH | 2.09 |
| KLAEAYLNLGPALSADLASSQKQH | 2.18 |
| KLAEAYLNLGPALSAELASSQKQH | 1.82 |
| KLAEAYLNLGPALSAFLASSQKQH | 3.07 |
| KLAEAYLNLGPALSAGLASSQKQH | 2.4 |
| KLAEAYLNLGPALSAHLASSQKQH | 2.86 |
| KLAEAYLNLGPALSAILASSQKQH | 4.08 |
| KLAEAYLNLGPALSAKLASSQKQH | 1.97 |
| KLAEAYLNLGPALSALLASSQKQH | 3.68 |
| KLAEAYLNLGPALSANLASSQKQH | 1.95 |
| KLAEAYLNLGPALSAPLASSQKQH | 2.39 |
| KLAEAYLNLGPALSAQLASSQKQH | 2.38 |
| KLAEAYLNLGPALSARLASSQKQH | 2.43 |
| KLAEAYLNLGPALSASLASSQKQH | 2.41 |
| KLAEAYLNLGPALSATLASSQKQH | 2.12 |
| KLAEAYLNLGPALSAVLASSQKQH | 2.05 |
| KLAEAYLNLGPALSAWLASSQKQH | 1.09 |
| KLAEAYLNLGPALSAYLASSQKQH | 2.95 |

| Variant | protein stability index |
| --- | --- |
| KLAEAYLNLGPALSAAAASSQKQH | 1.65 |
| KLAEAYLNLGPALSAACASSQKQH | 1.6 |
| KLAEAYLNLGPALSAADASSQKQH | 2.94 |
| KLAEAYLNLGPALSAAEASSQKQH | 2.26 |
| KLAEAYLNLGPALSAAFASSQKQH | 2.21 |
| KLAEAYLNLGPALSAAGASSQKQH | 1.95 |
| KLAEAYLNLGPALSAAHASSQKQH | 2.17 |
| KLAEAYLNLGPALSAAIASSQKQH | 2.16 |
| KLAEAYLNLGPALSAAKASSQKQH | 1.81 |
| KLAEAYLNLGPALSAAMASSQKQH | 2.69 |
| KLAEAYLNLGPALSAANASSQKQH | 2.56 |
| KLAEAYLNLGPALSAAPASSQKQH | 2.76 |
| KLAEAYLNLGPALSAAQASSQKQH | 2.17 |
| KLAEAYLNLGPALSAARASSQKQH | 2.45 |
| KLAEAYLNLGPALSAASASSQKQH | 2.03 |
| KLAEAYLNLGPALSAATASSQKQH | 1.95 |
| KLAEAYLNLGPALSAAVASSQKQH | 1.59 |
| KLAEAYLNLGPALSAAYASSQKQH | 1.97 |
| KLAEAYLNLGPALSAALCSSQKQH | 1.6 |
| KLAEAYLNLGPALSAALDSSQKQH | 2.22 |
| KLAEAYLNLGPALSAALESSQKQH | 1.95 |
| KLAEAYLNLGPALSAALFSSQKQH | 3 |
| KLAEAYLNLGPALSAALGSSQKQH | 2.29 |
| KLAEAYLNLGPALSAALHSSQKQH | 2.73 |

| Variant | protein stability index |
| --- | --- |
| KLAEAYLNLGPALSAALISSQKQH | 2.4 |
| KLAEAYLNLGPALSAALKSSQKQH | 2.02 |
| KLAEAYLNLGPALSAALLSSQKQH | 3.18 |
| KLAEAYLNLGPALSAALMSSQKQH | 3.46 |
| KLAEAYLNLGPALSAALNSSQKQH | 1.19 |
| KLAEAYLNLGPALSAALPSSQKQH | 2.04 |
| KLAEAYLNLGPALSAALQSSQKQH | 1.9 |
| KLAEAYLNLGPALSAALRSSQKQH | 2.67 |
| KLAEAYLNLGPALSAALSSSQKQH | 1.99 |
| KLAEAYLNLGPALSAALTSSQKQH | 1.52 |
| KLAEAYLNLGPALSAALVSSQKQH | 2.36 |
| KLAEAYLNLGPALSAALYSSQKQH | 2.37 |
| KLAEAYLNLGPALSAALAASQKQH | 4.1 |
| KLAEAYLNLGPALSAALACSQKQH | 2.07 |
| KLAEAYLNLGPALSAALADSQKQH | 1.89 |
| KLAEAYLNLGPALSAALAESQKQH | 2.95 |
| KLAEAYLNLGPALSAALAFSQKQH | 2.5 |
| KLAEAYLNLGPALSAALAGSQKQH | 3.14 |
| KLAEAYLNLGPALSAALAHSQKQH | 3.15 |
| KLAEAYLNLGPALSAALAISQKQH | 3.22 |
| KLAEAYLNLGPALSAALAKSQKQH | 2.51 |
| KLAEAYLNLGPALSAALALSQKQH | 2.35 |
